Source: article PMC2906322

Biological target: RhoGDIα S34D (phosphomimetic), bacterially expressed, hexahistidine-tagged (human) (UniProt P52565)
Assay: pull-down

UniProt P52565, sequence (P52565 whole entry S34D): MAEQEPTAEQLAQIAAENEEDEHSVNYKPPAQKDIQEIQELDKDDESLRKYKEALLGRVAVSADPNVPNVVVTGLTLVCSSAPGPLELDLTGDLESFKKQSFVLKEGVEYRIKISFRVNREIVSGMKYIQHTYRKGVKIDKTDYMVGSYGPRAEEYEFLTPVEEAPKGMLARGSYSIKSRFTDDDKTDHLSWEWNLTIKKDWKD

## RhoA, endogenous in rat embryo fibroblasts (from UniProt P61589 1-193) (natural protein)
  reduction of binding against wild-type RhoGDIα: 75%
